The target of assay [1] is K18 fibril seeds (human) (UniProt P10636).
Assay [2] has the same target. The source holds these as a separate data set.
Another assay has as its target htau40 seeds (human) (UniProt P10636).
Assay [3] concerns the target AD tau filaments (in AD brain homogenate) (human (endogenous in AD brain tissue)).
Assay [4] concerns the target Atto633-labeled 3R MAP2 monomer (UniProt P11137). Briefly: fluorescence polarisation; fluorescence anisotropy; 100 nM Atto633-labeled monomer titrated with K18 seeds (0–20 μM monomer equivalents), equilibrated 16 h at 22 °C; one-site binding model; apparent KD, based on monomer equivalents of seeds, not seed concentrations. (Fluorescence polarisation rises when a labelled molecule tumbles more slowly, as on binding a larger partner.)

The target of assay [5] is Atto633-labeled 4R MAP2 monomer (UniProt P11137). The description is as above.
Assay [6] has as its target Atto633-labeled K18 monomer (human) (UniProt P10636). Described as above.

Sequence of K18 fibril seeds (human) (P10636 561-689): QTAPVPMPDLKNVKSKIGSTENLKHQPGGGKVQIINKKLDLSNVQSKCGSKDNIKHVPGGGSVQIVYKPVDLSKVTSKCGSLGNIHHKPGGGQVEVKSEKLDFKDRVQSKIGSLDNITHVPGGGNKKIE
Sequence of K18 fibril seeds (P10636 561-689): as above
Sequence of 4R MAP2 (P11137 other isoform, or with tags, fused parts or gaps): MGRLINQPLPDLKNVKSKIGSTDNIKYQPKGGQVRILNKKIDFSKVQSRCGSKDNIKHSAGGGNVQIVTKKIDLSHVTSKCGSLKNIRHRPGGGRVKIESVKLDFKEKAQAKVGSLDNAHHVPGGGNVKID
Sequence of htau40 seeds (human) (P10636 other isoform, or with tags, fused parts or gaps): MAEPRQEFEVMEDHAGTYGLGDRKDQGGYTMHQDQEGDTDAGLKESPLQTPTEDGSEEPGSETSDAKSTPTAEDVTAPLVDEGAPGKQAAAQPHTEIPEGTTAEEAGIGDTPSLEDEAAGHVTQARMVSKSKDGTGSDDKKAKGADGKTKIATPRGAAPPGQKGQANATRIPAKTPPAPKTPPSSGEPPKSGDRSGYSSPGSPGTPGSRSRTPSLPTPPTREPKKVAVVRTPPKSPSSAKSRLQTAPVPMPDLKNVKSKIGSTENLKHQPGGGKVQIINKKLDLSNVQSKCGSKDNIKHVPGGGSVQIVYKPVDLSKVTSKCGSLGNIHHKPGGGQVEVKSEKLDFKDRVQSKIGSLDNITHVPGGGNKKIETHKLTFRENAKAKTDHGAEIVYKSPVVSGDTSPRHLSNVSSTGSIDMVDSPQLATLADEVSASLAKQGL

For “3R MAP2 (from UniProt P11137-4 362-490) (domain or fragment)”, in the assay with K18 fibril seeds (human) [1], the IC50 of inhibition of K18-seeded aggregation of 10 μM K18 monomers (10% seeds, 6 h, 37 °C; sedimentation, SDS-PAGE, Coomassie; 12.5 nM-25 μM 3R MAP2); blocks recruitment of K18 monomers onto K18 seeds amounted to 2200 nM. Besides, the percent of HEK293 cells expressing htau40P301S-EYFP that contain tau puncta 24 h after transduction of K18 seeds preincubated with 3R MAP2 (25% without MAP2) with K18 fibril seeds (human) [2] is 11 % of cells. Moreover, in the assay with htau40 seeds (human), the tau fibril growth (10 μM htau40 monomers on 1% htau40 seeds, 21 h, 37 °C; sedimentation, SDS-PAGE) with 10 μM 3R MAP2, relative to the reaction without MAP2 set to 100% (% of growth without MAP2) worked out at 56. This substance also returned an amplification of tau fibrils from AD brain homogenate (5 μM htau40 monomer, cycles of shaking and growth for 30 h; sedimentation, SDS-PAGE, densitometry) with 5 μM 3R MAP2 in assay [3] of more than 80 % reduction.
On to “4R MAP2 (from UniProt P11137-4 362-490) (domain or fragment)”, for which the IC50 of inhibition of K18-seeded aggregation of 10 μM K18 monomers (10% seeds, 6 h, 37 °C; sedimentation, SDS-PAGE, Coomassie; 12.5 nM-15 μM 4R MAP2); blocks recruitment of K18 monomers onto K18 seeds with K18 fibril seeds (human) [1] worked out at 1100 nM. The percent of HEK293 cells expressing htau40P301S-EYFP that contain tau puncta 24 h after transduction of K18 seeds preincubated with 4R MAP2 (25% without MAP2) with K18 fibril seeds (human) [2] was 6.4 % of cells. In addition, in the assay with htau40 seeds (human), the tau fibril growth (10 μM htau40 monomers on 1% htau40 seeds, 21 h, 37 °C; sedimentation, SDS-PAGE) with 10 μM 4R MAP2, relative to the reaction without MAP2 set to 100% (% of growth without MAP2) was 25. The amplification of tau fibrils from AD brain homogenate (5 μM htau40 monomer, cycles of shaking and growth for 30 h; sedimentation, SDS-PAGE, densitometry) with 5 μM 4R MAP2 in assay [3] was more than 80 % reduction.
On to “K18 fibril seeds (from UniProt P10636-8 244-372)”, for which the Kd in assay [4] was determined as 1600 nM; in assay [5], 1300 nM; in assay [6], 5400 nM.
